Experimental data taken from paper PMC3246388 (Biomacromolecules, 2011).

Molecular target: the molecule itself
Experiment: SEC + other: dynamic light scattering + other: transmission electron microscopy

B1: bacteriophage Qβ coat protein, assembled as the recombinant virus-like particle (natural protein)
chain: MAKLETVTLGNIGKDGKQTLVLNPRGVNPTNGVASLSQAGAVPALEKRVTVSVSQPSRNRKNYKVQVKIQNPTACTANGSCDPSVTRQAYADVTFSFTQYSTDEERAFVRTELAALLASPLLIDAIDQLNPAY
- binding result: binds
